Measured values as given in patent publication US20260001928A1 (CORTERIA PHARMACEUTICALS, priority 2022, published 2026).
*1 amine or outer side, *2 acyl side, *3 side chain or, on linkers, in order; H or OH if unused. Side-chain parts run from the residue outwards. [ ]: non-standard residue; d: D form. The star is where a group is joined. C18 diacid = O=C(O)CCCCCCCCCCCCCCCCC(=O)*; C16 diacid = O=C(O)CCCCCCCCCCCCCCC(=O)*; γGlu = O=C(O)[C@H](CCC(=O)[*:2])N[*:1]; αMeK = C[C@](N)(CCCCN)C(=O)O; Nva = CCC[C@H](N)C(=O)O; Abu = CC[C@H](N)C(=O)O; Dap = NC[C@H](N)C(=O)O; AEEA = NCCOCCOCC(=O)O

T1: CRF1R receptor (UniProt P34998 24-415, limits assumed)
T1 sequence (looked up): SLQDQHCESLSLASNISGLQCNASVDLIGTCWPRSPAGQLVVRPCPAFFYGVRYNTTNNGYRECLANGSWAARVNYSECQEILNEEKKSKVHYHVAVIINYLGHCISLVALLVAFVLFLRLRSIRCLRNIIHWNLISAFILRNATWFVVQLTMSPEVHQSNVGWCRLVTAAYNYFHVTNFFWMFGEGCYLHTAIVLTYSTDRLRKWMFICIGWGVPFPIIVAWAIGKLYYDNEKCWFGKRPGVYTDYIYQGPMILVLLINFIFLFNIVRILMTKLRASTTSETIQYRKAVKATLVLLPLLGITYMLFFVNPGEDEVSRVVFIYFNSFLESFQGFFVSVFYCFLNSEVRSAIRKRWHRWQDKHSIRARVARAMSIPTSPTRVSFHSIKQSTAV

B1: SEQ ID NO 108 (peptide)
peptide: Ac-IVLSLD[dV]PIKLK([AEEA-AEEA-γGlu-C18 diacid])KILLEQEKQKKQREQAETNEQILAQV-NH2
SMILES: CC[C@H](C)[C@H](NC(C)=O)C(=O)N[C@H](C(=O)N[C@@H](CC(C)C)C(=O)N[C@@H](CO)C(=O)N[C@@H](CC(C)C)C(=O)N[C@@H](CC(=O)O)C(=O)N[C@@H](C(=O)N1CCC[C@H]1C(=O)N[C@H](C(=O)N[C@@H](CCCCN)C(=O)N[C@@H](CC(C)C)C(=O)N[C@@H](CCCCNC(=O)COCCOCCNC(=O)COCCOCCNC(=O)CC[C@H](NC(=O)CCCCCCCCCCCCCCCCC(=O)O)C(=O)O)C(=O)N[C@@H](CCCCN)C(=O)N[C@H](C(=O)N[C@@H](CC(C)C)C(=O)N[C@@H](CC(C)C)C(=O)N[C@@H](CCC(=O)O)C(=O)N[C@@H](CCC(N)=O)C(=O)N[C@@H](CCC(=O)O)C(=O)N[C@@H](CCCCN)C(=O)N[C@@H](CCC(N)=O)C(=O)N[C@@H](CCCCN)C(=O)N[C@@H](CCCCN)C(=O)N[C@@H](CCC(N)=O)C(=O)N[C@@H](CCCNC(=N)N)C(=O)N[C@@H](CCC(=O)O)C(=O)N[C@@H](CCC(N)=O)C(=O)N[C@@H](C)C(=O)N[C@@H](CCC(=O)O)C(=O)N[C@H](C(=O)N[C@@H](CC(N)=O)C(=O)N[C@@H](CCC(=O)O)C(=O)N[C@@H](CCC(N)=O)C(=O)N[C@H](C(=O)N[C@@H](CC(C)C)C(=O)N[C@@H](C)C(=O)N[C@@H](CCC(N)=O)C(=O)N[C@H](C(N)=O)C(C)C)[C@@H](C)CC)[C@@H](C)O)[C@@H](C)CC)[C@@H](C)CC)C(C)C)C(C)C
B2: SEQ ID NO 51 (peptide)
peptide: Ac-IVLSLD[dV]PIKLK([γGlu-C16 diacid])KILLEQEKQKKQREQAETN[Abu]QILAQV-NH2
SMILES: CC[C@H](NC(=O)[C@H](CC(N)=O)NC(=O)[C@@H](NC(=O)[C@H](CCC(=O)O)NC(=O)[C@H](C)NC(=O)[C@H](CCC(N)=O)NC(=O)[C@H](CCC(=O)O)NC(=O)[C@H](CCCNC(=N)N)NC(=O)[C@H](CCC(N)=O)NC(=O)[C@H](CCCCN)NC(=O)[C@H](CCCCN)NC(=O)[C@H](CCC(N)=O)NC(=O)[C@H](CCCCN)NC(=O)[C@H](CCC(=O)O)NC(=O)[C@H](CCC(N)=O)NC(=O)[C@H](CCC(=O)O)NC(=O)[C@H](CC(C)C)NC(=O)[C@H](CC(C)C)NC(=O)[C@@H](NC(=O)[C@H](CCCCN)NC(=O)[C@H](CCCCNC(=O)CC[C@H](NC(=O)CCCCCCCCCCCCCCC(=O)O)C(=O)O)NC(=O)[C@H](CC(C)C)NC(=O)[C@H](CCCCN)NC(=O)[C@@H](NC(=O)[C@@H]1CCCN1C(=O)[C@H](NC(=O)[C@H](CC(=O)O)NC(=O)[C@H](CC(C)C)NC(=O)[C@H](CO)NC(=O)[C@H](CC(C)C)NC(=O)[C@@H](NC(=O)[C@@H](NC(C)=O)[C@@H](C)CC)C(C)C)C(C)C)[C@@H](C)CC)[C@@H](C)CC)[C@@H](C)O)C(=O)N[C@@H](CCC(N)=O)C(=O)N[C@H](C(=O)N[C@@H](CC(C)C)C(=O)N[C@@H](C)C(=O)N[C@@H](CCC(N)=O)C(=O)N[C@H](C(N)=O)C(C)C)[C@@H](C)CC
B3: SEQ ID NO 52 (peptide)
peptide: Ac-IVLSLD[dV]PIKLK([γGlu-C16 diacid])KILLEQEKQKKQREQAETN[Nva]QILAQV-NH2
SMILES: CCC[C@H](NC(=O)[C@H](CC(N)=O)NC(=O)[C@@H](NC(=O)[C@H](CCC(=O)O)NC(=O)[C@H](C)NC(=O)[C@H](CCC(N)=O)NC(=O)[C@H](CCC(=O)O)NC(=O)[C@H](CCCNC(=N)N)NC(=O)[C@H](CCC(N)=O)NC(=O)[C@H](CCCCN)NC(=O)[C@H](CCCCN)NC(=O)[C@H](CCC(N)=O)NC(=O)[C@H](CCCCN)NC(=O)[C@H](CCC(=O)O)NC(=O)[C@H](CCC(N)=O)NC(=O)[C@H](CCC(=O)O)NC(=O)[C@H](CC(C)C)NC(=O)[C@H](CC(C)C)NC(=O)[C@@H](NC(=O)[C@H](CCCCN)NC(=O)[C@H](CCCCNC(=O)CC[C@H](NC(=O)CCCCCCCCCCCCCCC(=O)O)C(=O)O)NC(=O)[C@H](CC(C)C)NC(=O)[C@H](CCCCN)NC(=O)[C@@H](NC(=O)[C@@H]1CCCN1C(=O)[C@H](NC(=O)[C@H](CC(=O)O)NC(=O)[C@H](CC(C)C)NC(=O)[C@H](CO)NC(=O)[C@H](CC(C)C)NC(=O)[C@@H](NC(=O)[C@@H](NC(C)=O)[C@@H](C)CC)C(C)C)C(C)C)[C@@H](C)CC)[C@@H](C)CC)[C@@H](C)O)C(=O)N[C@@H](CCC(N)=O)C(=O)N[C@H](C(=O)N[C@@H](CC(C)C)C(=O)N[C@@H](C)C(=O)N[C@@H](CCC(N)=O)C(=O)N[C@H](C(N)=O)C(C)C)[C@@H](C)CC
B4: SEQ ID NO 55 (peptide)
peptide: Ac-IVLSLD[dV]PIKLK([γGlu-C16 diacid])KILLEQEKQKKQREQAETN[Dap]QILAQV-NH2
SMILES: CC[C@H](C)[C@H](NC(C)=O)C(=O)N[C@H](C(=O)N[C@@H](CC(C)C)C(=O)N[C@@H](CO)C(=O)N[C@@H](CC(C)C)C(=O)N[C@@H](CC(=O)O)C(=O)N[C@@H](C(=O)N1CCC[C@H]1C(=O)N[C@H](C(=O)N[C@@H](CCCCN)C(=O)N[C@@H](CC(C)C)C(=O)N[C@@H](CCCCNC(=O)CC[C@H](NC(=O)CCCCCCCCCCCCCCC(=O)O)C(=O)O)C(=O)N[C@@H](CCCCN)C(=O)N[C@H](C(=O)N[C@@H](CC(C)C)C(=O)N[C@@H](CC(C)C)C(=O)N[C@@H](CCC(=O)O)C(=O)N[C@@H](CCC(N)=O)C(=O)N[C@@H](CCC(=O)O)C(=O)N[C@@H](CCCCN)C(=O)N[C@@H](CCC(N)=O)C(=O)N[C@@H](CCCCN)C(=O)N[C@@H](CCCCN)C(=O)N[C@@H](CCC(N)=O)C(=O)N[C@@H](CCCNC(=N)N)C(=O)N[C@@H](CCC(=O)O)C(=O)N[C@@H](CCC(N)=O)C(=O)N[C@@H](C)C(=O)N[C@@H](CCC(=O)O)C(=O)N[C@H](C(=O)N[C@@H](CC(N)=O)C(=O)N[C@@H](CN)C(=O)N[C@@H](CCC(N)=O)C(=O)N[C@H](C(=O)N[C@@H](CC(C)C)C(=O)N[C@@H](C)C(=O)N[C@@H](CCC(N)=O)C(=O)N[C@H](C(N)=O)C(C)C)[C@@H](C)CC)[C@@H](C)O)[C@@H](C)CC)[C@@H](C)CC)C(C)C)C(C)C
B5: SEQ ID NO 107 (peptide)
peptide: Ac-IVLSLD[dV]PIKLK([AEEA-AEEA-γGlu-C18 diacid])KILLEQEKQKKQREQAETN[Dap]QILAQV-NH2
SMILES: CC[C@H](C)[C@H](NC(C)=O)C(=O)N[C@H](C(=O)N[C@@H](CC(C)C)C(=O)N[C@@H](CO)C(=O)N[C@@H](CC(C)C)C(=O)N[C@@H](CC(=O)O)C(=O)N[C@@H](C(=O)N1CCC[C@H]1C(=O)N[C@H](C(=O)N[C@@H](CCCCN)C(=O)N[C@@H](CC(C)C)C(=O)N[C@@H](CCCCNC(=O)COCCOCCNC(=O)COCCOCCNC(=O)CC[C@H](NC(=O)CCCCCCCCCCCCCCCCC(=O)O)C(=O)O)C(=O)N[C@@H](CCCCN)C(=O)N[C@H](C(=O)N[C@@H](CC(C)C)C(=O)N[C@@H](CC(C)C)C(=O)N[C@@H](CCC(=O)O)C(=O)N[C@@H](CCC(N)=O)C(=O)N[C@@H](CCC(=O)O)C(=O)N[C@@H](CCCCN)C(=O)N[C@@H](CCC(N)=O)C(=O)N[C@@H](CCCCN)C(=O)N[C@@H](CCCCN)C(=O)N[C@@H](CCC(N)=O)C(=O)N[C@@H](CCCNC(=N)N)C(=O)N[C@@H](CCC(=O)O)C(=O)N[C@@H](CCC(N)=O)C(=O)N[C@@H](C)C(=O)N[C@@H](CCC(=O)O)C(=O)N[C@H](C(=O)N[C@@H](CC(N)=O)C(=O)N[C@@H](CN)C(=O)N[C@@H](CCC(N)=O)C(=O)N[C@H](C(=O)N[C@@H](CC(C)C)C(=O)N[C@@H](C)C(=O)N[C@@H](CCC(N)=O)C(=O)N[C@H](C(N)=O)C(C)C)[C@@H](C)CC)[C@@H](C)O)[C@@H](C)CC)[C@@H](C)CC)C(C)C)C(C)C
B6: SEQ ID NO 17 (peptide)
peptide: Ac-IVLSLD[dV]PIKLK([γGlu-C16 diacid])QILLKQERQKKQREQAEKNEQILEQV-NH2
SMILES: CC[C@H](C)[C@H](NC(C)=O)C(=O)N[C@H](C(=O)N[C@@H](CC(C)C)C(=O)N[C@@H](CO)C(=O)N[C@@H](CC(C)C)C(=O)N[C@@H](CC(=O)O)C(=O)N[C@@H](C(=O)N1CCC[C@H]1C(=O)N[C@H](C(=O)N[C@@H](CCCCN)C(=O)N[C@@H](CC(C)C)C(=O)N[C@@H](CCCCNC(=O)CC[C@H](NC(=O)CCCCCCCCCCCCCCC(=O)O)C(=O)O)C(=O)N[C@@H](CCC(N)=O)C(=O)N[C@H](C(=O)N[C@@H](CC(C)C)C(=O)N[C@@H](CC(C)C)C(=O)N[C@@H](CCCCN)C(=O)N[C@@H](CCC(N)=O)C(=O)N[C@@H](CCC(=O)O)C(=O)N[C@@H](CCCNC(=N)N)C(=O)N[C@@H](CCC(N)=O)C(=O)N[C@@H](CCCCN)C(=O)N[C@@H](CCCCN)C(=O)N[C@@H](CCC(N)=O)C(=O)N[C@@H](CCCNC(=N)N)C(=O)N[C@@H](CCC(=O)O)C(=O)N[C@@H](CCC(N)=O)C(=O)N[C@@H](C)C(=O)N[C@@H](CCC(=O)O)C(=O)N[C@@H](CCCCN)C(=O)N[C@@H](CC(N)=O)C(=O)N[C@@H](CCC(=O)O)C(=O)N[C@@H](CCC(N)=O)C(=O)N[C@H](C(=O)N[C@@H](CC(C)C)C(=O)N[C@@H](CCC(=O)O)C(=O)N[C@@H](CCC(N)=O)C(=O)N[C@H](C(N)=O)C(C)C)[C@@H](C)CC)[C@@H](C)CC)[C@@H](C)CC)C(C)C)C(C)C

These binders were tested against human corticotropin-releasing factor 2a (CRF2a receptor) (human), Q13324 (assay: cell-based or functional assay).
human corticotropin-releasing factor 2a (CRF2a receptor) (human), Q13324, sequence (Q13324 20-411): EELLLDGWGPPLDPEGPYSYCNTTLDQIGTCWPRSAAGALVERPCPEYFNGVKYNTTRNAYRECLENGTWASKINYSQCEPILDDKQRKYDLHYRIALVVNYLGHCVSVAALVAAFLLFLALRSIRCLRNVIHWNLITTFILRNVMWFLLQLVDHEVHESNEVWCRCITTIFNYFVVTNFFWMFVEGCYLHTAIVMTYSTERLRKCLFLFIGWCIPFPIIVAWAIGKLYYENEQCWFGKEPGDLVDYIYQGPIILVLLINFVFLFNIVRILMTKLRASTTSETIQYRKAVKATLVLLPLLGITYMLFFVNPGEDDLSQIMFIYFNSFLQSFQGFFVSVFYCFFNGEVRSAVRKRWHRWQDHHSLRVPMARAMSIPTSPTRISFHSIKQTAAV

Binder	EC50 [nM] (cAMP)
B1	1.14
B2	0.12
B3	0.17
B4	0.42
B5	1.43
B6	0.21
Ac-IVLSLD[dV]PIKLK([AEEA-AEEA-γGlu-C18 diacid])KILLEQEKQKKQREQAETN[αMeK]QILAQV-NH2 (not fully specified) [SEQ ID NO 106]	0.35

These binders were tested against T1, CRF1R receptor (assay: cell-based or functional assay).

Binder	Emax (% I) [%]
B1	4
B2	9
B3	7
B4	5
B5	0
B6	12
Ac-IVLSLD[dV]PIKLK([AEEA-AEEA-γGlu-C18 diacid])KILLEQEKQKKQREQAETN[αMeK]QILAQV-NH2 (not fully specified) [SEQ ID NO 106]	6
